These results are taken from article PMC11407386, “Streptococcus suis 5’-nucleotidases contribute to adenosine-mediated immune evasion and virulence in a mouse model” (Virulence, 2024).

The data set has as its system Nc1ncnc2c1ncn2[C@@H]1O[C@H](COP(=O)(O)O)[C@@H](O)[C@H]1O. Put plainly: purified protein. Conditions: 50 mM Tris-HCl, 5 mM MnCl2, pH 7.5, 37°C, 0.05 µM enzyme.

SntD (Streptococcus suis BM407): the Km (0-2000 µM AMP) worked out at 412.1 µM.

Turning to SntC (Streptococcus suis BM407), for the setting “0-500 µM AMP”, the Km was 83.7 µM.

As to SntA (Streptococcus suis BM407), the Km (0-500 µM AMP) turned out to be 13.67 µM.

For orientation: Km means the concentration of substrate that gives half-maximal velocity.
